Experimental data: paper doi:10.1101/2024.05.03.592409 (bioRxiv, 2024)

B1: HER4 (receptor)
chain: QSVCAGTENKLSSLSDLEQQYRALRKYYENCEVVMGNLEITSIEHNRDLSFLRSVREVTGYVLVALNQFRYLPLENLRIIRGTKLYEDRYALAIFLNYRKDGNFGLQELGLKNLTEILNGGVYVDQNKFLCYADTIHWQDIVRNPWPSNLTLVSTNGSSGCGRCHKSCTGRCWGPTENHCQTLTRTVCAEQCDGRCYGPYVSDCCHRECAGGCSGPKDTDCFACMNFNDSGACVTQCPQTFVYNPTTFQLEHNFNAKYTYGAFCVKKCPHNFVVDSSSCVRACPSSKMEVEENGIKMCKPCTDICPKACDGIGTGSLMSAQTVDSSNIDKFINCTKINGNLIFLVTGIHGDPYNAIEAIDPEKLNVFRTVREITGFLNIQSWPPNMTDFSVFSNLVTIGGRVLYSGLSLLILKQQGITSLQFQSLKEISAGNIYITDNSNLCYYHTINWTTLFSTINQRIVIRDNRKAENCTAEGMVCNHLCSSDGCWGPGPDQCLSCRRFSRGRICIESCNLYDGEFREFENGSICVECDPQCEKMEDGLLTCHGPGPDNCTKCSHFKDGPNCVEKCPDGLQGANSFIFKYADPDRECHPCHPNCTQGCNGPTSHDCIYYPWTGHSTLPQHARTPLIAAGVIGGLFILVIVGLTFAVYVRRKSIKKKRALRRFLETELVEPLTPSGTAPNQAQLRILKETELKRVKVLGSGAFGTVYKGIWVPEGETVKIPVAIKILNETTGPKANVEFMDEALIMASMDHPHLVRLLGVCLSPTIQLVTQLMPHGCLLEYVHEHKDNIGSQLLLNWCVQIAKGMMYLEERRLVHRDLAARNVLVKSPNHVKITDFGLARLLEGDEKEYNADGGKMPIKWMALECIHYRKFTHQSDVWSYGVTIWELMTFGGKPYDGIPTREIPDLLEKGERLPQPPICTIDVYMVMVKCWMIDADSRPKFKELAAEFSRMARDPQRYLVIQGDDRMKLPSPNDSKFFQNLLDEEDLEDMMDAEEYLVPQAFNIPPPIYTSRARIDSNRSEIGHSPPPAYTPMSGNQFVYRDGGFAAEQGVSVPYRAPTSTIPEAPVAQGATAEIFDDSCCNGTLRKPVAPHVQEDSSTQRYSADPTVFAPERSPRGELDEEGYMTPMRDKPKQEYLNPVEENPFVSRRKNGDLQALDNPEYHNASNGPPKAEDEYVNEPLYLNTFANTLGKAEYLKNNILSMPEKAKKAFDNPDYWNHSLPPRSTLQHPDYLQEYSTKYFYKQNGRIRPIVAENPEYLSEFSLKPGTVLPPPPYRHRNTVV

Assays:
Assay in all cases: PIE-FCCS
[1] = molecular target: GCN4 (membrane protein construct, live-cell dimer control)
[2] = molecular target: EGFR (human, UniProt P00533 25-1210)
[3] = molecular target: HER2 (human, UniProt P04626 23-1255)
[4] = molecular target: HER3 (human, UniProt P21860 20-1342)
Chain of HER3 (P21860 20-1342): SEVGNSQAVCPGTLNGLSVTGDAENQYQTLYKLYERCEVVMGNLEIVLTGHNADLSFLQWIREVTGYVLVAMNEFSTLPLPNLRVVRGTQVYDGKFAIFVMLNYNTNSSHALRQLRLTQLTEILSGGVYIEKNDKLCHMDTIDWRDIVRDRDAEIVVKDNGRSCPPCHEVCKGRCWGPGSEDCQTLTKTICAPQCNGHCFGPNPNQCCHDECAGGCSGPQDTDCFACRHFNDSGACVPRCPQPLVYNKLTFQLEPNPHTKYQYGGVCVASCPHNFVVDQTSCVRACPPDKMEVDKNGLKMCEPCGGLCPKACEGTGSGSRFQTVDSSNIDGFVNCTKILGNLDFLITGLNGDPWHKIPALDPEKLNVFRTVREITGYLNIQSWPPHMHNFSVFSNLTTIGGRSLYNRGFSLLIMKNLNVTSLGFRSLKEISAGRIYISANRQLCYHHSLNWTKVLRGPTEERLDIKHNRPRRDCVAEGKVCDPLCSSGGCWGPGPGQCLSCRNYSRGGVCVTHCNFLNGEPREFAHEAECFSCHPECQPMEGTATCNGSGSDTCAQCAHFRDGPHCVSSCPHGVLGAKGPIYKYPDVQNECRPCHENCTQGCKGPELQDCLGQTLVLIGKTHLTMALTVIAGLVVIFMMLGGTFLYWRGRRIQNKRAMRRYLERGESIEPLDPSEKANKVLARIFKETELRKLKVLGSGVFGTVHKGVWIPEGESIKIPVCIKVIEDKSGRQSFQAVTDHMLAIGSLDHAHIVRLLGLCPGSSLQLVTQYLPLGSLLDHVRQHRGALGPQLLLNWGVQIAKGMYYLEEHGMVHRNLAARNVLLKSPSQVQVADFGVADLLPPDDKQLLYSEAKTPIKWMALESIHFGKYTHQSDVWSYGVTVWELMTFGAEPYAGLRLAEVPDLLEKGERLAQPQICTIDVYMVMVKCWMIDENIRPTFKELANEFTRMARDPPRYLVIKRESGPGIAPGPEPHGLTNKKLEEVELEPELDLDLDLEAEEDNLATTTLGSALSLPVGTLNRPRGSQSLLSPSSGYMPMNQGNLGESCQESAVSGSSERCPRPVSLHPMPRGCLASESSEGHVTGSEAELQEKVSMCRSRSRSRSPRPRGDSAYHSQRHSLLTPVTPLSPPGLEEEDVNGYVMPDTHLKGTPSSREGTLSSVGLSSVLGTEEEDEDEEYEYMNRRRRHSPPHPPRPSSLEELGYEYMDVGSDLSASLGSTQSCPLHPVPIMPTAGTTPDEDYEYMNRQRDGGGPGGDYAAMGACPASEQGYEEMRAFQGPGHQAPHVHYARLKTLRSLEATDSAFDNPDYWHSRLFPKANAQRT

Row | Molecule | median fc (fraction of cross-correlation) [1] | stoichiometry N [1] | median fc (fraction of cross-correlation) [2] | median fc (fraction of cross-correlation) [3] | median fc (fraction of cross-correlation) [4]
1 | GCN4 (membrane protein construct, live-cell dimer control) | 0.15 | 2 |  |  | 
2 | B1 |  |  | 0.17 | 0.17 | 0.11
